Assay results from patent US20020197616A1 (REGENTS OF THE UNIVERSITY OF MICHIGAN, published 2002).

B1: TRADD (other, UniProt Q15628 1-312, looked up)
chain: MAAGQNGHEEWVGSAYLFVESSLDKVVLSDAYAHPQQKVAVYRALQAALAESGGSPDVLQMLKIHRSDPQLIVQLRFCGRQPCGRFLRAYREGALRAALQRSLAAALAQHSVPLQLELRAGAERLDALLADEERCLSCILAQQPDRLRDEELAELEDALRNLKCGSGARGGDGEVASAPLQPPVPSLSEVKPPPPPPPAQTFLFQGQPVVNRPLSLKDQQTFARSVGLKWRKVGRSLQRGCRALRDPALDSLAYEYEREGLYEQAFQLLRRFVQAEGRRATLQRLVEALEENELTSLAEDLLGLTDPNGGLA
notes: Construct and tag not described
B2: IKKα (enzyme, UniProt O15111 1-745, looked up)
chain: MERPPGLRPGAGGPWEMRERLGTGGFGNVCLYQHRELDLKIAIKSCRLELSTKNRERWCHEIQIMKKLNHANVVKACDVPEELNILIHDVPLLAMEYCSGGDLRKLLNKPENCCGLKESQILSLLSDIGSGIRYLHENKIIHRDLKPENIVLQDVGGKIIHKIIDLGYAKDVDQGSLCTSFVGTLQYLAPELFENKPYTATVDYWSFGTMVFECIAGYRPFLHHLQPFTWHEKIKKKDPKCIFACEEMSGEVRFSSHLPQPNSLCSLVVEPMENWLQLMLNWDPQQRGGPVDLTLKQPRCFVLMDHILNLKIVHILNMTSAKIISFLLPPDESLHSLQSRIERETGINTGSQELLSETGISLDPRKPASQCVLDGVRGCDSYMVYLFDKSKTVYEGPFASRSLSDCVNYIVQDSKIQLPIIQLRKVWAEAVHYVSGLKEDYSRLFQGQRAAMLSLLRYNANLTKMKNTLISASQQLKAKLEFFHKSIQLDLERYSEQMTYGISSEKMLKAWKEMEEKAIHYAEVGVIGYLEDQIMSLHAEIMELQKSPYGRRQGDLMESLEQRAIDLYKQLKHRPSDHSYSDSTEMVKIIVHTVQSQDRVLKELFGHLSKLLGCKQKIIDLLPKVEVALSNIKEADNTVMFMQGKRQKEIWHLLKIACTQSSARSLVGSSLEGAVTPQTSAWLPPTSAEHDHSLSCVVTPQDGETSAQMIEENLNCLGHLSTIIHEANEEQGNSMMNLDWSWLTE
notes: Construct and tag not described for this test
B3: caspase-4 (enzyme, UniProt P49662 1-377, looked up)
chain: MAEGNHRKKPLKVLESLGKDFLTGVLDNLVEQNVLNWKEEEKKKYYDAKTEDKVRVMADSMQEKQRMAGQMLLQTFFNIDQISPNKKAHPNMEAGPPESGESTDALKLCPHEEFLRLCKERAEEIYPIKERNNRTRLALIICNTEFDHLPPRNGADFDITGMKELLEGLDYSVDVEENLTARDMESALRAFATRPEHKSSDSTFLVLMSHGILEGICGTVHDEKKPDVLLYDTIFQIFNNRNCLSLKDKPKVIIVQACRGANRGELWVRDSPASLEVASSQSSENLEEDAVYKTHVEKDFIAFCSSTPHNVSWRDSTMGSIFITQLITCFQKYSWCCHLEEVFRKVQQSFETPRAKAQMPTIERLSMTRYFYLFPGN
notes: as for B1
B4: IKKβ (enzyme, UniProt O14920 1-756, looked up)
chain: MSWSPSLTTQTCGAWEMKERLGTGGFGNVIRWHNQETGEQIAIKQCRQELSPRNRERWCLEIQIMRRLTHPNVVAARDVPEGMQNLAPNDLPLLAMEYCQGGDLRKYLNQFENCCGLREGAILTLLSDIASALRYLHENRIIHRDLKPENIVLQQGEQRLIHKIIDLGYAKELDQGSLCTSFVGTLQYLAPELLEQQKYTVTVDYWSFGTLAFECITGFRPFLPNWQPVQWHSKVRQKSEVDIVVSEDLNGTVKFSSSLPYPNNLNSVLAERLEKWLQLMLMWHPRQRGTDPTYGPNGCFKALDDILNLKLVHILNMVTGTIHTYPVTEDESLQSLKARIQQDTGIPEEDQELLQEAGLALIPDKPATQCISDGKLNEGHTLDMDLVFLFDNSKITYETQISPRPQPESVSCILQEPKRNLAFFQLRKVWGQVWHSIQTLKEDCNRLQQGQRAAMMNLLRNNSCLSKMKNSMASMSQQLKAKLDFFKTSIQIDLEKYSEQTEFGITSDKLLLAWREMEQAVELCGRENEVKLLVERMMALQTDIVDLQRSPMGRKQGGTLDDLEEQARELYRRLREKPRDQRTEGDSQEMVRLLLQAIQSFEKKVRVIYTQLSKTVVCKQKALELLPKVEEVVSLMNEDEKTVVRLQEKRQKELWNLLKIACSKVRGPVSGSPDSMNASRLSQPGQLMSQPSTASNSLPEPAKKSEELVAEAHNLCTLLENAIQDTVREQDQSFTALDWSWLQTEEEEHSCLEQAS
notes: as for B2
B5: procaspase-9 (enzyme, UniProt P55211 1-416, looked up)
chain: MDEADRRLLRRCRLRLVEELQVDQLWDALLSRELFRPHMIEDIQRAGSGSRRDQARQLIIDLETRGSQALPLFISCLEDTGQDMLASFLRTNRQAAKLSKPTLENLTPVVLRPEIRKPEVLRPETPRPVDIGSGGFGDVGALESLRGNADLAYILSMEPCGHCLIINNVNFCRESGLRTRTGSNIDCEKLRRRFSSLHFMVEVKGDLTAKKMVLALLELAQQDHGALDCCVVVILSHGCQASHLQFPGAVYGTDGCPVSVEKIVNIFNGTSCPSLGGKPKLFFIQACGGEQKDHGFEVASTSPEDESPGSNPEPDATPFQEGLRTFDQLDAISSLPTPSDIFVSYSTFPGFVSWRDPKSGSWYVETLDDIFEQWAHSEDLQSLLLRVANAVSVKGIYKQMPGCFNFLRKKLFFKTS
notes: as for B1
B6: caspase-1 (enzyme, UniProt P29466 1-404, looked up)
chain: MADKVLKEKRKLFIRSMGEGTINGLLDELLQTRVLNKEEMEKVKRENATVMDKTRALIDSVIPKGAQACQICITYICEEDSYLAGTLGLSADQTSGNYLNMQDSQGVLSSFPAPQAVQDNPAMPTSSGSEGNVKLCSLEEAQRIWKQKSAEIYPIMDKSSRTRLALIICNEEFDSIPRRTGAEVDITGMTMLLQNLGYSVDVKKNLTASDMTTELEAFAHRPEHKTSDSTFLVFMSHGIREGICGKKHSEQVPDILQLNAIFNMLNTKNCPSLKDKPKVIIIQACRGDSPGVVWFKDSVGVSGNLSLPTTEEFEDDAIKKAHIEKDFIAFCSSTPDNVSWRHPTMGSVFIGRLIEHMQEYACSCDVEEIFRKVRFSFEQPDGRAQMPTTERVTLTRCFYLFPGH
notes: as for B1
B7: TRAF-2 (other, UniProt Q12933 1-501, looked up)
chain: MAAASVTPPGSLELLQPGFSKTLLGTKLEAKYLCSACRNVLRRPFQAQCGHRYCSFCLASILSSGPQNCAACVHEGIYEEGISILESSSAFPDNAARREVESLPAVCPSDGCTWKGTLKEYESCHEGRCPLMLTECPACKGLVRLGEKERHLEHECPERSLSCRHCRAPCCGADVKAHHEVCPKFPLTCDGCGKKKIPREKFQDHVKTCGKCRVPCRFHAIGCLETVEGEKQQEHEVQWLREHLAMLLSSVLEAKPLLGDQSHAGSELLQRCESLEKKTATFENIVCVLNREVERVAMTAEACSRQHRLDQDKIEALSSKVQQLERSIGLKDLAMADLEQKVLEMEASTYDGVFIWKISDFARKRQEAVAGRIPAIFSPAFYTSRYGYKMCLRIYLNGDGTGRGTHLSLFFVVMKGPNDALLRWPFNQKVTLMLLDQNNREHVIDAFRPDVTSSSFQRPVNDMNIASGCPLFCPVSKMEAKNSYVRDDAIFIKAIVDLTGL
notes: as for B1
B8: TRAF-1 (other, UniProt Q13077 1-416, looked up)
chain: MASSSGSSPRPAPDENEFPFGCPPTVCQDPKEPRALCCAGCLSENPRNGEDQICPKCRGEDLQSISPGSRLRTQEKAHPEVAEAGIGCPFAGVGCSFKGSPQSVQEHEVTSQTSHLNLLLGFMKQWKARLGCGLESGPMALEQNLSDLQLQAAVEVAGDLEVDCYRAPCSESQEELALQHFMKEKLLAELEGKLRVFENIVAVLNKEVEASHLALATSIHQSQLDRERILSLEQRVVELQQTLAQKDQALGKLEQSLRLMEEASFDGTFLWKITNVTRRCHESACGRTVSLFSPAFYTAKYGYKLCLRLYLNGDGTGKRTHLSLFIVIMRGEYDALLPWPFRNKVTFMLLDQNNREHAIDAFRPDLSSASFQRPQSETNVASGCPLFFPLSKLQSPKHAYVKDDTMFLKCIVETST
notes: as for B1
B9: Ced-4 (other, UniProt P30429 1-549, looked up)
chain: MLCEIECRALSTAHTRLIHDFEPRDALTYLEGKNIFTEDHSELISKMSTRLERIANFLRIYRRQASELGPLIDFFNYNNQSHLADFLEDYIDFAINEPDLLRPVVIAPQFSRQMLDRKLLLGNVPKQMTCYIREYHVDRVIKKLDEMCDLDSFFLFLHGRAGSGKSVIASQALSKSDQLIGINYDSIVWLKDSGTAPKSTFDLFTDILLMLKSEDDLLNFPSVEHVTSVVLKRMICNALIDRPNTLFVFDDVVQEETIRWAQELRLRCLVTTRDVEISNAASQTCEFIEVTSLEIDECYDFLEAYGMPMPVGEKEEDVLNKTIELSSGNPATLMMFFKSCEPKTFEKMAQLNNKLESRGLVGVECITPYSYKSLAMALQRCVEVLSDEDRSALAFAVVMPPGVDIPVKLWSCVIPVDICSNEEEQLDDEVADRLKRLSKRGALLSGKRMPVLTFKIDHIIHMFLKHVVDAQTIANGISILEQRLLEIGNNNVSVPERHIPSHFQKFRRSSASEMYPKTTEETVIRPEDFPKFMQLHQKFYDSLKNFACC
notes: as for B1
B10: RIP (enzyme, UniProt Q13546 1-671, looked up)
chain: MQPDMSLNVIKMKSSDFLESAELDSGGFGKVSLCFHRTQGLMIMKTVYKGPNCIEHNEALLEEAKMMNRLRHSRVVKLLGVIIEEGKYSLVMEYMEKGNLMHVLKAEMSTPLSVKGRIILEIIEGMCYLHGKGVIHKDLKPENILVDNDFHIKIADLGLASFKMWSKLNNEEHNELREVDGTAKKNGGTLYYMAPEHLNDVNAKPTEKSDVYSFAVVLWAIFANKEPYENAICEQQLIMCIKSGNRPDVDDITEYCPREIISLMKLCWEANPEARPTFPGIEEKFRPFYLSQLEESVEEDVKSLKKEYSNENAVVKRMQSLQLDCVAVPSSRSNSATEQPGSLHSSQGLGMGPVEESWFAPSLEHPQEENEPSLQSKLQDEANYHLYGSRMDRQTKQQPRQNVAYNREEERRRRVSHDPFAQQRPYENFQNTEGKGTAYSSAASHGNAVHQPSGLTSQPQVLYQNNGLYSSHGFGTRPLDPGTAGPRVWYRPIPSHMPSLHNIPVPETNYLGNTPTMPFSSLPPTDESIKYTIYNSTGIQIGAYNYMEIGGTSSSLLDSTNTNFKEEPAAKYQAIFDNTTSLTDKHLDPIRENLGKHWKNCARKLGFTQSQIDEIDHDYERDGLKEKVYQMLQKWVMREGIKGATVGKLAQALHQCSRIDLLSSLIYVSQN
notes: as for B1
B11: RICKΔCARD (residues 1-374), Flag-tagged (other, not shown: small tags and cut ends)
chain: MNGEAICSALPTIPYHKLADLRYLSRGASGTVSSARHADWRVQVAVKHLHIHTPLLDSERKDVLREAEILHKARFSYILPILGICNEPEFLGIVTEYMPNGSLNELLHRKTEYPDVAWPLRFRILHEIALGVNYLHNMTPPLLHHDLKTQNILLDNEFHVKIADFGLSKWRMMSLSQSRSSKSAPEGGTIIYMPPENYEPGQKSRASIKHDIYSYAVITWEVLSRKQPFEDVTNPLQIMYSVSQGHRPVINEESLPYDIPHRARMISLIESGWAQNPDERPSFLKCLIELEPVLRTFEEITFLEAVIQLKKTKLQSVSSAIHLCDKKKMELSLNIPVNHGPQEESCGSSQLHENSGSPETSRSLPAPQDNDFLS
notes: also called pcDNA3-Flag-RICK(1-374)

What follows are binders tested against T1, Nod2 (wild-type, HA-tagged) (human, UniProt Q9HC29 1-1040) (assay: co-immunoprecipitation, HEK293T extracts).
T1 construct: Expressed in HEK293T cells and tested in cell extracts by co-immunoprecipitation; also called Nod2a; wt Nod2; not shown: HA tag; the plasmid is named both pcDNA3-Nod2-HA and pcDNA3-HA-Nod2, so the end that carries the ta
From the text: Proteins co-immunoprecipitated with anti-HA antibody were detected with anti-Flag antibody. […] Proteins in total lysate were detected by anti-Flag and anti-HA monoclonal antibody, respectively. […]

T1 sequence (Q9HC29 whole entry): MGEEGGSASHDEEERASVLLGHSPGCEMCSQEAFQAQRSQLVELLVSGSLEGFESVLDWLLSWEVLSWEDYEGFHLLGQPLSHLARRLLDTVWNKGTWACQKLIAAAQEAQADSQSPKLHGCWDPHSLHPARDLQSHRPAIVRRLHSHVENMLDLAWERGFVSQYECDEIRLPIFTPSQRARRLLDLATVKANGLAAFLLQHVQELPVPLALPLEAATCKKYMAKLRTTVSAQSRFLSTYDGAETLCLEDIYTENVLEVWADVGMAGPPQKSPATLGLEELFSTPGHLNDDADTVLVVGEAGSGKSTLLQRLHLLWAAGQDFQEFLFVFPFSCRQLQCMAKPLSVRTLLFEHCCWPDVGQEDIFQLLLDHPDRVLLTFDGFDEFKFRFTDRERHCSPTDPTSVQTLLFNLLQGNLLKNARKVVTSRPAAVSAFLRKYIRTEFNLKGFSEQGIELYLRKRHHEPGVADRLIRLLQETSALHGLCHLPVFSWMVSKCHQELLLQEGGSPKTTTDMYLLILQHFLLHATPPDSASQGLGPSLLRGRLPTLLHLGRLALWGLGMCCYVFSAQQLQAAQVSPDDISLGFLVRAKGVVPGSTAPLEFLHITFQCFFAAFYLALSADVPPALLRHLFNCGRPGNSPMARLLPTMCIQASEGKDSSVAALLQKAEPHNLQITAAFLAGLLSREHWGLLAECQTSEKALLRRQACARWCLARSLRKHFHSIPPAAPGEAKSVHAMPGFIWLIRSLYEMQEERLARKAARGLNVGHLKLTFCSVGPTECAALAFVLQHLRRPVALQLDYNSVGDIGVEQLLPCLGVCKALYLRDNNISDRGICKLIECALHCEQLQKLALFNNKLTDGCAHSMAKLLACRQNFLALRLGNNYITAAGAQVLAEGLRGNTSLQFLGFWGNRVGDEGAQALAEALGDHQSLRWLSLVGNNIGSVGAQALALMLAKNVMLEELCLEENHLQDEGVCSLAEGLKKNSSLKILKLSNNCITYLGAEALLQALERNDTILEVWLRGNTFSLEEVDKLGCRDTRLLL

Row | binding result | Binder
1 | no binding | B1
2 | no binding | B2
3 | no binding | B3
4 | no binding | B4
5 | no binding | B5
6 | no binding | B6
7 | no binding | B7
8 | no binding | B8
9 | no binding | B9
10 | no binding | B10
11 | no binding | B11
